Data reported in publication PMC11101554, “Pyruvate kinase 2 from Synechocystis sp. PCC 6803 increased substrate affinity via glucose-6-phosphate and ribose-5-phosphate for phosphoenolpyruvate consumption” (Plant Molecular Biology, 2024).

Key:
[1] = molecular target: T1, SyPyk2 (Synechocystis pyruvate kinase 2) (Synechocystis sp. PCC 6803, UniProt P73534); test: LDH-coupled assay, NADH oxidation at […] nm; type: biochemical; details: read-out: % activity at 1 mM
T1 construct: gene pyk2; synthesized gene in pGEX6P-1 (BamHI-XhoI), GST fusion from E. coli BL21, GST tag cut by PreScission protease; untagged 63 kDa
T1 sequence (P73534 1-591): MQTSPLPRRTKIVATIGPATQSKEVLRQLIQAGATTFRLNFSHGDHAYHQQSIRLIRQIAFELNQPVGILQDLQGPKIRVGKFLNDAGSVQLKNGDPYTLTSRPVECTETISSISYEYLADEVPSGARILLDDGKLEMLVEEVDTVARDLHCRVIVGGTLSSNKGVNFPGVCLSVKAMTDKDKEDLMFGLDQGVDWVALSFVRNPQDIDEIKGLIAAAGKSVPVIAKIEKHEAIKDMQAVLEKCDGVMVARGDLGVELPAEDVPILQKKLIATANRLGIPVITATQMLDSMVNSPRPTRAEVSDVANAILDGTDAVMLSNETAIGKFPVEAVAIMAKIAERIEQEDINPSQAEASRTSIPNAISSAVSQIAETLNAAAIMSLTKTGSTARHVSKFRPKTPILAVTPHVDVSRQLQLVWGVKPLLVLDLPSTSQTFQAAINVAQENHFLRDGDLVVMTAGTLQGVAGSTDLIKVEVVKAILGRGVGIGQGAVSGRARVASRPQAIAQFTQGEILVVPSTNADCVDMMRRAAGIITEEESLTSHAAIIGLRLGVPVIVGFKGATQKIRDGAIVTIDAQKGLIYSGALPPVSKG

[2] = molecular target: T1, SyPyk2 (Synechocystis pyruvate kinase 2); test: LDH-coupled assay, NADH oxidation at […] nm; type: biochemical
purified protein [3] = substrate: Nc1ncnc2c1ncn2[C@@H]1O[C@H](COP(=O)(O)OP(=O)(O)O)[C@@H](O)[C@H]1O; test: purified protein; type: biochemical, Synechocystis sp. PCC 6803; details: 55 °C, pH 7.0 MES-NaOH, 5 mM PEP, 15 mM MgCl2, 100 mM KCl, hyperbolic
purified protein [4] = substrate: C=C(OP(=O)(O)O)C(=O)O; test: purified protein; type: biochemical, Synechocystis sp. PCC 6803; details: 55 °C, pH 7.0 MES-NaOH, 2 mM ADP, 15 mM MgCl2, 100 mM KCl, no effector, sigmoidal (half-saturation, cooperative)

O=P(O)(O)OC[C@H]1OC(O)[C@H](O)[C@@H](O)[C@@H]1O (stereo partly drawn) [G6P, glucose-6-phosphate]
activity at 1000 µM [1]: ~200%

Nc1ncnc2c1ncn2[C@@H]1O[C@H](COP(=O)(O)OP(=O)(O)OP(=O)(O)O)[C@@H](O)[C@H]1O [ATP, adenosine triphosphate]
IC50 [2]: 4.1 mM

O=P(O)(O)OC[C@H]1OC(O)[C@H](O)[C@@H]1O (stereo partly drawn) [R5P, ribose-5-phosphate]
activity at 1000 µM [1]: ~150%

B1: SyPyk2 (Synechocystis pyruvate kinase 2) (Synechocystis sp. PCC 6803 substr. Kazusa) (protein)
chain: T1 sequence (P73534 1-591)
notes: synthesized gene in pGEX6P-1 (BamHI-XhoI), GST fusion from E. coli BL21, GST tag cut by PreScission protease; untagged 63 kDa
Km (purified protein [3]): 52.7 ± 7.6 µM
kcat (purified protein [3]): 251 ± 6 s⁻¹
kcat/Km (purified protein [3]): 4.84e+06 ± 733000 M⁻¹ s⁻¹
Km (purified protein [4]): 1530 ± 70 µM
kcat (purified protein [4]): 253 ± 11 s⁻¹
kcat/Km (purified protein [4]): 166000 ± 3000 M⁻¹ s⁻¹
